# Laboratory results published in patent US20220048967A1 (published 2022).
# Numbered stars: 1 amine (or outer) side, 2 acyl side, 3 side chain; on linkers, the order of the positions; unused ones are H or OH. Square brackets hold non-standard residues; d marks the D form. Side chains are listed from the residue outwards. Ends that are not written are not given here. * marks the point of attachment. C20 diacid = O=C(O)CCCCCCCCCCCCCCCCCCC(=O)*; γGlu = O=C(O)[C@H](CCC(=O)[*:2])N[*:1]; AEEA = NCCOCCOCC(=O)O; Aib = CC(C)(N)C(=O)O
# T1: human GIP receptor (human, UniProt P48546 22-466)
# T1 sequence (looked up): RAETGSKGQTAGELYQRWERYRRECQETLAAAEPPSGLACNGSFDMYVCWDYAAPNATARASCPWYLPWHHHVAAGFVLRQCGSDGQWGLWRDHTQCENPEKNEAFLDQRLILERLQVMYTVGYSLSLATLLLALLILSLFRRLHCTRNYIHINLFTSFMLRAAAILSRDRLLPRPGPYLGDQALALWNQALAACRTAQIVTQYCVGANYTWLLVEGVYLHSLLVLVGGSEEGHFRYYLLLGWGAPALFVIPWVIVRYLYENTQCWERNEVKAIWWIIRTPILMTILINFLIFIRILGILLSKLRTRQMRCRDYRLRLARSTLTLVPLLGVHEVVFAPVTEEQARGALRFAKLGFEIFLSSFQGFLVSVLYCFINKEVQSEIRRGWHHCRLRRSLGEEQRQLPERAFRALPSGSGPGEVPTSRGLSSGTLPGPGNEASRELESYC
# B1: Example 27 (peptide)
# peptide: Y[Aib]EGTFTSDYSILK([AEEA-AEEA-γGlu-C20 diacid])DKIAQ[Aib]AFIEYLIEGGPSSGAPPPS-NH2
# modifications: N-terminus assumed
# SMILES: CC[C@H](C)[C@H](NC(=O)[C@H](CCCCN)NC(=O)[C@H](CC(=O)O)NC(=O)[C@H](CCCCNC(=O)COCCOCCNC(=O)COCCOCCNC(=O)CC[C@H](NC(=O)CCCCCCCCCCCCCCCCCCC(=O)O)C(=O)O)NC(=O)[C@H](CC(C)C)NC(=O)[C@@H](NC(=O)[C@H](CO)NC(=O)[C@H](Cc1ccc(O)cc1)NC(=O)[C@H](CC(=O)O)NC(=O)[C@H](CO)NC(=O)[C@@H](NC(=O)[C@H](Cc1ccccc1)NC(=O)[C@@H](NC(=O)CNC(=O)[C@H](CCC(=O)O)NC(=O)C(C)(C)NC(=O)[C@@H](N)Cc1ccc(O)cc1)[C@@H](C)O)[C@@H](C)O)[C@@H](C)CC)C(=O)N[C@@H](C)C(=O)N[C@@H](CCC(N)=O)C(=O)NC(C)(C)C(=O)N[C@@H](C)C(=O)N[C@@H](Cc1ccccc1)C(=O)N[C@H](C(=O)N[C@@H](CCC(=O)O)C(=O)N[C@@H](Cc1ccc(O)cc1)C(=O)N[C@@H](CC(C)C)C(=O)N[C@H](C(=O)N[C@@H](CCC(=O)O)C(=O)NCC(=O)NCC(=O)N1CCC[C@H]1C(=O)N[C@@H](CO)C(=O)N[C@@H](CO)C(=O)NCC(=O)N[C@@H](C)C(=O)N1CCC[C@H]1C(=O)N1CCC[C@H]1C(=O)N1CCC[C@H]1C(=O)N[C@@H](CO)C(N)=O)[C@@H](C)CC)[C@@H](C)CC
# B2: Example 25 (peptide)
# peptide: Y[Aib]EGTFTSDYSK([AEEA-AEEA-γGlu-C20 diacid])LLDKIAQ[Aib]AFIEYLIEGGPSSGAPPPS-NH2
# modifications: N-terminus assumed
# SMILES: CC[C@H](C)[C@H](NC(=O)[C@H](CCCCN)NC(=O)[C@H](CC(=O)O)NC(=O)[C@H](CC(C)C)NC(=O)[C@H](CC(C)C)NC(=O)[C@H](CCCCNC(=O)COCCOCCNC(=O)COCCOCCNC(=O)CC[C@H](NC(=O)CCCCCCCCCCCCCCCCCCC(=O)O)C(=O)O)NC(=O)[C@H](CO)NC(=O)[C@H](Cc1ccc(O)cc1)NC(=O)[C@H](CC(=O)O)NC(=O)[C@H](CO)NC(=O)[C@@H](NC(=O)[C@H](Cc1ccccc1)NC(=O)[C@@H](NC(=O)CNC(=O)[C@H](CCC(=O)O)NC(=O)C(C)(C)NC(=O)[C@@H](N)Cc1ccc(O)cc1)[C@@H](C)O)[C@@H](C)O)C(=O)N[C@@H](C)C(=O)N[C@@H](CCC(N)=O)C(=O)NC(C)(C)C(=O)N[C@@H](C)C(=O)N[C@@H](Cc1ccccc1)C(=O)N[C@H](C(=O)N[C@@H](CCC(=O)O)C(=O)N[C@@H](Cc1ccc(O)cc1)C(=O)N[C@@H](CC(C)C)C(=O)N[C@H](C(=O)N[C@@H](CCC(=O)O)C(=O)NCC(=O)NCC(=O)N1CCC[C@H]1C(=O)N[C@@H](CO)C(=O)N[C@@H](CO)C(=O)NCC(=O)N[C@@H](C)C(=O)N1CCC[C@H]1C(=O)N1CCC[C@H]1C(=O)N1CCC[C@H]1C(=O)N[C@@H](CO)C(N)=O)[C@@H](C)CC)[C@@H](C)CC
# B3: Example 26 (peptide)
# peptide: Y[Aib]EGTFTSDYSIK([AEEA-AEEA-γGlu-C20 diacid])LDKIAQ[Aib]AFIEYLIEGGPSSGAPPPS-NH2
# modifications: N-terminus assumed
# SMILES: CC[C@H](C)[C@H](NC(=O)[C@H](CCCCN)NC(=O)[C@H](CC(=O)O)NC(=O)[C@H](CC(C)C)NC(=O)[C@H](CCCCNC(=O)COCCOCCNC(=O)COCCOCCNC(=O)CC[C@H](NC(=O)CCCCCCCCCCCCCCCCCCC(=O)O)C(=O)O)NC(=O)[C@@H](NC(=O)[C@H](CO)NC(=O)[C@H](Cc1ccc(O)cc1)NC(=O)[C@H](CC(=O)O)NC(=O)[C@H](CO)NC(=O)[C@@H](NC(=O)[C@H](Cc1ccccc1)NC(=O)[C@@H](NC(=O)CNC(=O)[C@H](CCC(=O)O)NC(=O)C(C)(C)NC(=O)[C@@H](N)Cc1ccc(O)cc1)[C@@H](C)O)[C@@H](C)O)[C@@H](C)CC)C(=O)N[C@@H](C)C(=O)N[C@@H](CCC(N)=O)C(=O)NC(C)(C)C(=O)N[C@@H](C)C(=O)N[C@@H](Cc1ccccc1)C(=O)N[C@H](C(=O)N[C@@H](CCC(=O)O)C(=O)N[C@@H](Cc1ccc(O)cc1)C(=O)N[C@@H](CC(C)C)C(=O)N[C@H](C(=O)N[C@@H](CCC(=O)O)C(=O)NCC(=O)NCC(=O)N1CCC[C@H]1C(=O)N[C@@H](CO)C(=O)N[C@@H](CO)C(=O)NCC(=O)N[C@@H](C)C(=O)N1CCC[C@H]1C(=O)N1CCC[C@H]1C(=O)N1CCC[C@H]1C(=O)N[C@@H](CO)C(N)=O)[C@@H](C)CC)[C@@H](C)CC
# B4: Example 28 (peptide)
# peptide: Y[Aib]EGTFTSDYSILLK([AEEA-AEEA-γGlu-C20 diacid])KIAQ[Aib]AFIEYLIEGGPSSGAPPPS-NH2
# modifications: N-terminus assumed
# SMILES: CC[C@H](C)[C@H](NC(=O)[C@H](CCCCN)NC(=O)[C@H](CCCCNC(=O)COCCOCCNC(=O)COCCOCCNC(=O)CC[C@H](NC(=O)CCCCCCCCCCCCCCCCCCC(=O)O)C(=O)O)NC(=O)[C@H](CC(C)C)NC(=O)[C@H](CC(C)C)NC(=O)[C@@H](NC(=O)[C@H](CO)NC(=O)[C@H](Cc1ccc(O)cc1)NC(=O)[C@H](CC(=O)O)NC(=O)[C@H](CO)NC(=O)[C@@H](NC(=O)[C@H](Cc1ccccc1)NC(=O)[C@@H](NC(=O)CNC(=O)[C@H](CCC(=O)O)NC(=O)C(C)(C)NC(=O)[C@@H](N)Cc1ccc(O)cc1)[C@@H](C)O)[C@@H](C)O)[C@@H](C)CC)C(=O)N[C@@H](C)C(=O)N[C@@H](CCC(N)=O)C(=O)NC(C)(C)C(=O)N[C@@H](C)C(=O)N[C@@H](Cc1ccccc1)C(=O)N[C@H](C(=O)N[C@@H](CCC(=O)O)C(=O)N[C@@H](Cc1ccc(O)cc1)C(=O)N[C@@H](CC(C)C)C(=O)N[C@H](C(=O)N[C@@H](CCC(=O)O)C(=O)NCC(=O)NCC(=O)N1CCC[C@H]1C(=O)N[C@@H](CO)C(=O)N[C@@H](CO)C(=O)NCC(=O)N[C@@H](C)C(=O)N1CCC[C@H]1C(=O)N1CCC[C@H]1C(=O)N1CCC[C@H]1C(=O)N[C@@H](CO)C(N)=O)[C@@H](C)CC)[C@@H](C)CC
# What was measured:
# human GLP-1 receptor = human GLP-1 receptor (human, UniProt P43220 24-463); test: cell-based or functional assay
# human GIP receptor = target: T1, human GIP receptor; test: cell-based or functional assay
Binder,hGLP1R cAMP EC50 ratio (human GLP-1 receptor),hGLP1R cAMP Rel EC50 (human GLP-1 receptor) [nM],hGIPR cAMP EC50 ratio (human GIP receptor),hGIPR cAMP Rel EC50 (human GIP receptor) [nM]
B1,0.123,0.557,1.9,0.0789
B2,0.197,0.356,0.636,0.23
B3,0.238,0.293,0.585,0.251
B4,0.00166,32.7,0.106,1.66
